Assays:
[1] = target: T1, … HLA-A*0201 complex (biotinylated soluble pHLA) (human, enzymatically biotinylated (BirA) on the C-terminal biotinylation tag); experiment: SPR (BIAcore 3000), soluble TCR over immobilised biotinylated pHLA, 25 °C
T1 construct: also called MAGE-B2; not shown: C-terminal biotinylation tag

[2] = target: T2, … HLA-A*0201 complex (biotinylated soluble pHLA) (human, enzymatically biotinylated (BirA) on the C-terminal biotinylation tag); experiment: as above
T2 construct: also called MAGE A4; not shown: C-terminal biotinylation tag

B1: TCR2 (TCR)
TCR alpha: MKNQVEQSPQSLIILEGKNCTLQCNYTVSPFSNLRWYKQDTGRGPVSLTIMTFSENTKSNGRYTATLDADTKQSSLHITASQLSDSASYICVVSGGTDSWGKLQF
TCR beta: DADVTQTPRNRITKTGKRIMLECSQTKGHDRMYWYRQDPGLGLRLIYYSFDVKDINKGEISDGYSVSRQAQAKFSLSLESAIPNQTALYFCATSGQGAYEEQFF
Kd [1]: 198 µM
Kd [2]: 17.2 µM

B2: TCR3 (TCR)
TCR alpha: MKNQVEQSPQSLIILEGKNCTLQCNYTVSPFSNLRWYKQDTGRGPVSLTIVTFSENTKSNGRYTATLDADTKQSSLHITASQLSDSASYICVVSGGTDSWGKLQF
TCR beta: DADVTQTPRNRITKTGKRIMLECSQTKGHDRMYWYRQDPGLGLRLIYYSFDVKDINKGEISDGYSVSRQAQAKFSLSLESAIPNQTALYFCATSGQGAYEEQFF
Kd [1]: 27.6 µM
Kd [2]: 2.6 µM

B3: TCR4 (TCR)
TCR alpha: MKNQVEQSPQSLIILEGKNCTLQCNYTVSPFSNLRWYKQDTGRGPVSLTILTFSENTKSNGRYTATLDADTKQSSLHITASQLSDSASYICVVSGGTDSWGKLQF
TCR beta: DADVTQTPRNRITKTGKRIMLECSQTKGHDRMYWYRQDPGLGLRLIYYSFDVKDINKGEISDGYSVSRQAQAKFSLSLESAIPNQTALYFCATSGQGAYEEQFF
Kd [1]: 52.6 µM
Kd [2]: 5.1 µM

Reference: patent EP4818200A1 (USWM CT, LLC, dated 2026)
